From patent publication US11015206B2, “Compositions and methods comprising sequences having hydroxyphenylpyruvate dioxygenase (HPPD) activity” (PIONEER HI-BRED INTERNATIONAL, INC., priority 2014, dated 2021)

Tested on: 4-hydroxyphenylpyruvate dioxygenase (HPPD)
Experiment: HPPD activity coupled assay with HGD; substrate saturation kinetic parameters (kcat, KM)
Format: biochemical, Z. mays
Outline: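 Coupled continuous assay: His-tagged HPPD (5 to 240 nM, E. coli-expressed, Ni-NTA-purified) with 50 nM P. aeruginosa HGD in 25 mM Hepes pH 7, 2 mM ascorbate, 10 μM FeSO4; maleylacetoacetate followed at 320 nm. KM and Vmax from Lineweaver-Burke fits over 3.33–100 μM HPP.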

[1] = Table 2, E. coli purified proteins
[2] = Table 6, single substitutions in SEQ ID NO:2
[3] = substrate saturation kinetic analysis

B1: R7-9070: shuffled maize HPPD, Round 7, variant 9070 (SEQ ID NO:2); backbone for saturation mutagenesis (protein)
chain: MGPTPTATAAGAAVAAASAAEQAAFRLVGHRNFVRFNPRSDRFQTLAFHHVELWCADAASAAGRFSFALGVPLAARSDLSTGNSAHASLLLRSGSLSLLFTAPYAHGADAATAALPSFSAAAARRFAADHGLAVRAVALRVADAEDAFRASVAAGARPAFGPVDLGRGFRLAEVELYGDVVLRYVSYPDGAAGEPFLPGFEGVASPGAADYGLSRFDHIVGNVPELAPAAAYMAGFTGFHEFAEFTTEDVGTTESGLNSMALANNSENVLLPLNEPVHGTKRRSQIQTFLDHHGGPGVQHIALASDDVLRTLREMRARSAMGGFEFLPPPLSDYYDGVRRCAGDVLTEAQINECQELGVMVDRDDQGVLLQIFTKPVGDRPTFFLEIIQRIGCMEKDEKGQEYQKGGCGGFGKGNFGQLFKSIEDYEKSLEAKQAAAAATAQGS
modifications: Zea mays variant form created by artificial means.
notes: backbone for saturation mutagenesis
Work on B1 yielded a Km [1] of 2.9 µM, a kcat [1] of 1.48 s⁻¹ and a Km (Table 6) of 2.35 µM. It also gave a kcat [2] of 0.918 s⁻¹, a Km [3] of 2.91 µM and a kcat [3] of 1.48 s⁻¹.

B2: P056028-B-02 (protein)
chain: MGPTPTATAAGAAVAAASAAEQAAFRLVGHRNFVRFNPRSDRFQTLAFHHVELWCADAASAAGRFSFALGVPLAARSDLSTGNSAHASLLLRSGSLSLLFTAPYAHGADAATAALPSFSAAAARRFAADHGLAVRAVALRVADAEDAFRASVAAGARPAFGPVDLGRGFRLAEVELYGDVVLRYVSYPDGAAGEPFLPGFEGVASSGAADYGLSRFDHIVGNVPELAPAAAYMAGFTGFHEFAEFTTEDVGTTESGLNSMALANNSENVLLPLNEPVHGTKRRSQIQTFLDHHGGPGVQHIALASDDVLRTLREMRARSAMGGFEFLPPPLSDYYDGVRRCAGDVLTEAQINECQKLGVMVDRDDEGVLLQIFTKPVGDRPTFFLEIIQRIGCMEKDEKGQEYQKGGCGGFGKGNFGQLFKSIEDYERSLEAKQAAAVATAQGS
modifications: Zea mays variant form created by artificial means.
B2 gave a Km [3] of 3 µM and a kcat [3] of 0.978 s⁻¹.

B3: P056028-A-03 (protein)
chain: MGPTPTATAAGAAVAAASAAEQAAFRLVGHRNFVRFNPRSDRFQTLAFHHVELWCADAASAAGRFSFALGVPLAARSDLSTGNSAHASLLLRSGSLSLLFTAPYAHGADAATAALPSFSAAAARRFAADHGLAVRAVALRVADAEDAFRASVAAGARPAFGPVDLGRGFRLAEVELYGDVVLRYVSYPDGGAGEPFLPGFEGVASPGAADLGLSRFDHIVGNVPELAPAAAYMAGFTGFHEFAEFTTEDVGTTESGLNSMALANNSENVLLPLNEPVHGTKRRSQIQTFLDHHGGPGVQHIALASDDVLRTLREMRARSAMGGFEFLPPPLSDYYDGVRRCAGDVLTEAQINECQELGVMVDRDDEGVLLQIFTKPVGDRPTFFLEIIQRIGCMEKDEKGQEYQKGGCGGFGKGNFGQLFKSIEDYEKSLERKRAAAAATAQGS
modifications: Zea mays variant form created by artificial means.
With B3 the Km [3] was 2.98 µM and the kcat [3] was 1.05 s⁻¹.

B4: P056028-G-01R (protein)
chain: MGPTPTATAAGAAVAAASAAEQAAFRLVGHRNFVRFNPRSDRFQTLAFHHVELWCADAASAAGRFSFALGVPLAARSDLSTGNSAHASLLLRSGSLSLLFTAPYAHGADAATAALPSFSAAAARRFAADHGLAVRAVALRVADAEDAFRASVAAGARPAFGPVDLGRGFRLAEVELYGDVVLRYVSYPDGAAGEPFLPGFEGVASPGAADLGLNRFDHIVGNVPELAPAAAYMAGFTGFHEFAEFTTEDVGTTESGLNSMALANNSENVLLPLNEPVHGTKRRSQIQTFLDHHGGPGVQHIALASDDVLRTLREMRARSAMGGFEFLPPPLSDYYDGVRKCAGDVLTEAQINECQELGVMVDRDDEGVLLQIFTKPVGDRPTFFLEIIQRIGCREKDEKGQEYQKGGCGGFGKGNFGQLFKSIEDYEKSLEKKRAAAAATAQGS
modifications: Zea mays variant form created by artificial means.
B4 showed a Km [3] of 2.02 µM and a kcat [3] of 1.18 s⁻¹.

B5: P056028-A-01 (protein)
chain: MGPTPTATAAGAAVAAASAAEQAAFRLVGHRNFVRFNPRSDRFQTLAFHHVELWCADAASAAGRFSFALGVPLAARSDLSTGNSAHASLLLRSGSLSLLFTAPYAHGADAATAALPSFSAAAARRFAADHGLAVRAVALRVADAEDAFRASVAAGARPAFGPVDLGRGFRLAEVELYGDVVLRYVSYPDGAAGEPFLPGFEGVASPGAADYGLSRFDHIVGNVPELAPAAAYMAGFTGFHEFAEFTTEDVGTTESGLNSMALANNSENVLLPLNEPVHGTKRRSQIQTFLDHHGGPGVQHIALASDDVLRTLREMRARSAMGGFEFLPPPLSDYYDGVRRCAGDVLTEAQINECQELGVMVDRDDEGVLLQIFTKPVGDRPTFFLEIIQRIGCMEKDEKGQEYQKGGCGGFGKGNFGQLFKSIEDYEKSLEAKRAAAAATAQGS
modifications: Zea mays variant form created by artificial means.
With B5 the Km [3] was 2.49 µM and the kcat [3] was 1.21 s⁻¹.

B6: P056028-G-01 (protein)
chain: MGPTPTATAAGAAVAAASAAEQAAFRLVGHRNFVRFNPRSDRFQTLAFHHVELWCADAASAAGRFSFALGVPLAARSDLSTGNSAHASLLLRSGSLSLLFTAPYAHGADAATAALPSFSAAAARRFAADHGLAVRAVALRVADAEDAFRASVAAGARPAFGPVDLGRGFRLAEVELYGDVVLRYVSYPDGAAGEPFLPGFEGVASPGAADLGLNRFDHIVGNVPELAPAAAYMAGFTGFHEFAEFTTEDVGTTESGLNSMALANNSENVLLPLNEPVHGTKRRSQIQTFLDHHGGPGVQHIALASDDVLRTLREMRARSAMGGFEFLPPPLSDYYDGVRKCAGDVLTEAQINECQELGVMVDRDDEGVLLQIFTKPVGDRPTFFLEIIQRIGCMEKDEKGQEYQKGGCGGFGKGNFGQLFKSIEDYEKSLEKKRAAAAATAQGS
modifications: Zea mays variant form created by artificial means.
B6 gave a Km [3] of 2.06 µM and a kcat [3] of 0.69 s⁻¹.

B7: 9070Q366E (protein)
chain: MGPTPTATAAGAAVAAASAAEQAAFRLVGHRNFVRFNPRSDRFQTLAFHHVELWCADAASAAGRFSFALGVPLAARSDLSTGNSAHASLLLRSGSLSLLFTAPYAHGADAATAALPSFSAAAARRFAADHGLAVRAVALRVADAEDAFRASVAAGARPAFGPVDLGRGFRLAEVELYGDVVLRYVSYPDGAAGEPFLPGFEGVASPGAADYGLSRFDHIVGNVPELAPAAAYMAGFTGFHEFAEFTTEDVGTTESGLNSMALANNSENVLLPLNEPVHGTKRRSQIQTFLDHHGGPGVQHIALASDDVLRTLREMRARSAMGGFEFLPPPLSDYYDGVRRCAGDVLTEAQINECQELGVMVDRDDEGVLLQIFTKPVGDRPTFFLEIIQRIGCMEKDEKGQEYQKGGCGGFGKGNFGQLFKSIEDYEKSLEAKQAAAAATAQGS
modifications: Zea mays variant form created by artificial means.
B7 showed a Km [3] of 1.57 µM and a kcat [3] of 0.513 s⁻¹.

B8: P056028-B-09 (protein)
chain: MGPTPTATAAGAAVAAASAAEQAAFRLVGHRNFVRFNPRSDRFQTLAFHHVELWCADAASAAGRFSFALGVPLAARSDLSTGNSAHASLLLRSGSLSLLFTAPYAHGADAATAALPSFSAAAARRFAADHGLAVRAVALRVADAEDAFRASVAAGARPAFGPVDLGRGFRLAEVELYGDVVLRYVSYPDGAAGEPFLPGFEGVASPGAADYGLSRFDHIVGNVPELAPAAAYMAGFTGFHEFAEFTTEDVGTTESGLNSMALANNSENVLLPLNEPVHGTKRRSQIQTFLDHHGGPGVQHIALASDDVLRTLREMRARSAMGGFEFLPPPLSDYYDDVRRCAGDVLTEAQINECQELGVMVDRDDEGVLLQIFTKPVGDRPTFFLEIIQRIGCVEKDEKGQEYQKGGCGGFGKGNFGQLFKSIEDYEKSLEAKRAAAAATAQGS
modifications: Zea mays variant form created by artificial means.
B8 showed a Km [3] of 3 µM and a kcat [3] of 1.55 s⁻¹.

B9: P056028-D-03 (protein)
chain: MGPTPTATAAGAAVAAASAAEQAAFRLVGHRNFVRFNPRSDRFQTLAFHHVELWCADAASAAGRFSFALGVPLAARSDLSTGNSAHASLLLRSGSLSLLFTAPYAHGADAATAALPSFSAAAARRFAADHGLAVRAVALRVADAEDAFRASVAAGARPAFGPVDLGRGFRLAEVELYGDVVMRYVSYPDGAAGEPFLPGFEGVASPGAADYGLNRFDHIVGNVPELAPAAAYMAGFTGFHEFAEFTTEDVGTTESGLNSMALANNSENVLLPLNEPVHGTKRRSQIQTFLDHHGGPGVQHIALASDDVLRTLREMRARSAMGGFEFLPPPLSDYYDGVRRCAGDVLTEAQINECQELGVMVDRDDEGVLLQIFTKPVGDRPTFFLEIIQRIGCMEKDEKGQEYQKGGCGGFGKGNFGQLFKSIEDYEKSLEAKQAAAAATAQGS
modifications: Zea mays variant form created by artificial means.
For B9, the Km [3] was 2.08 µM and the kcat [3] was 0.737 s⁻¹.

B10: Z. mays wt: maize wild-type HPPD, SEQ ID NO:1 (glycine for proline at position 2) (protein)
chain: MGPTPTAAAAGAAVAAASAAEQAAFRLVGHRNFVRFNPRSDRFHTLAFHHVELWCADAASAAGRFSFGLGAPLAARSDLSTGNSAHASLLLRSGSLSFLFTAPYAHGADAATAALPSFSAAAARRFAADHGLAVRAVALRVADAEDAFRASVAAGARPAFGPVDLGRGFRLAEVELYGDVVLRYVSYPDGAAGEPFLPGFEGVASPGAADYGLSRFDHIVGNVPELAPAAAYFAGFTGFHEFAEFTTEDVGTAESGLNSMVLANNSENVLLPLNEPVHGTKRRSQIQTFLDHHGGPGVQHMALASDDVLRTLREMQARSAMGGFEFMAPPTSDYYDGVRRRAGDVLTEAQIKECQELGVLVDRDDQGVLLQIFTKPVGDRPTLFLEIIQRIGCMEKDEKGQEYQKGGCGGFGKGNFSQLFKSIEDYEKSLEAKQAAAAAAAQGS
modifications: Zea mays
B10 showed a Km [1] of 6.4 µM, a kcat [1] of 3.65 s⁻¹ and a Km (Table 6) of 6.4 µM. For the same molecule, the kcat [2] was 3.65 s⁻¹, the Km [3] was 6.41 µM and the kcat [3] was 3.65 s⁻¹. For the same molecule, the kcat (text b374) was “about 220 min^−1”.
